Where a chain is given by its changes, count along the chain named. Numbers in names are those of the source.
B1: Mus musculus full-length TMEM120A (TACAN, residues 1–343), wild type (natural protein, UniProt Q8C1E7 1-343, looked up)
chain: MQSPPPDPLGDCLRNWEDLQQDFQGIQETHRLYRLKLEELTKLQANCTNSITRQKKRLQELALVLKKCRPSLPSESMEAAQELENQMKERQGLFFDMEAYLPKKNGLYLSLVLGNVNVTLLSKQAKFAYKDEYEKFKLYLTIILIVISFTCRFLLNSRVTDAAFNFLLVWYYCTLTIRESILINNGSRIKGWWVFHHYVSTFLSGVMLTWPDGLMYQKFRNQFLSFSMYQSFVQFLQYYYQSGCLYRLRALGERHTMDLTVEGFQSWMWRGLTFLLPFLFFGHFWQLFNALTLFNLARDPECKEWQVLMCGFPFLLLFLGNFFTTLRVVHQKFHSQQHGNKKD
notes: TMEM120A (TACAN), Mus musculus, full length, residues 1-343; the model of the structure holds residues 9-72, 76-250 and 262-335; A PreScission protease site lies between TACAN and the C-terminal eGFP; residues of the cut site probably stay on the C-terminus (surmised; expected monomer mass printed as 41,770 Da); Synthetic gene (GeneWiz); also called TACAN^WT; M. musculus TACAN; source: HEK293S …
B2: Mus musculus TACAN (TMEM120A) His196Ala, His197Ala mutant (natural protein, UniProt Q8C1E7 1-343, looked up)
chain: B1 chain with H196A, H197A
notes: TMEM120A (TACAN), Mus musculus, full length, residues 1-343, with H196A and H197A; the model of the structure holds residues 9-72, 76-250 and 262-335; Same construct as m1 with the two mutations; co-purified with coenzyme A (small molecule); Expected monomer mass printed as 41,637 Da; also called TACAN^(H196A H197A); His196Ala His197Ala mutant TACAN; source: HEK293S GnTI- cells, BacMam …

Molecular target: the molecule itself
Test: cryo-EM structure; single-particle cryo-EM; purified protein at 6–7 mg/mL in digitonin, mixed with 2.9 mM FFC8; refined with C2 symmetry

Protein	stoichiometry N	binding result
B1	2	
B2		binds

Source: article PMC8376246, “Analysis of the mechanosensor channel functionality of TACAN” (eLife, 2021)
